{"source": "patent US20190144565A1", "about": "(UCB, published 2019)", "key": {"[1]": {"target": "IgE-Fc, the Fc portion of human IgE (Cε2-Cε4 domains, V224-K547 by Dorrington & Bennich numbering, carrying a C225A mutation) (human) (UniProt P01854)", "sequence (P01854 other isoform, or with tags, fused parts or gaps C225A C225A limits assumed)": "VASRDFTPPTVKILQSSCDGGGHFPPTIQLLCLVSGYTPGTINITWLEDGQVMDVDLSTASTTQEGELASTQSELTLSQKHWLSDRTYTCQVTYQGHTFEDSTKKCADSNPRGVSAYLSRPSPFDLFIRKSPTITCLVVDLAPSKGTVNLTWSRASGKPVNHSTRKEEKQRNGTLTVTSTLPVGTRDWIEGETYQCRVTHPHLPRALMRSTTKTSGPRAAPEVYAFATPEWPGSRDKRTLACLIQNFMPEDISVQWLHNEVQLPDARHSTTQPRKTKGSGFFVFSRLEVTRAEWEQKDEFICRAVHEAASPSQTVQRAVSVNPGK", "assay": "flow cytometry, Alexa488 IgE-Fc on RBL-SX38 cells; control at 10 ug/mL"}, "[2]": {"target": "IgE-Fc, the Fc portion of human IgE (Cε2-Cε4 domains, V224-K547 by Dorrington & Bennich numbering, carrying a C225A mutation) (human) (UniProt P01854)", "assay": "flow cytometry, Alexa488 IgE-Fc on RBL-SX38 cells; control at 3.1 ug/mL"}, "[3]": {"target": "IgE-Fc, the Fc portion of human IgE (Cε2-Cε4 domains, V224-K547 by Dorrington & Bennich numbering, carrying a C225A mutation) (human) (UniProt P01854)", "assay": "flow cytometry, Alexa488 IgE-Fc on RBL-SX38 cells; control at 100 ug/mL"}, "[4]": {"target": "IgE-Fc, the Fc portion of human IgE (Cε2-Cε4 domains, V224-K547 by Dorrington & Bennich numbering, carrying a C225A mutation) (human) (UniProt P01854)", "assay": "flow cytometry, Alexa488 IgE-Fc on RBL-SX38 cells; control at 31 ug/mL"}, "[5]": {"target": "IgE-Fc, the Fc portion of human IgE (Cε2-Cε4 domains, V224-K547 by Dorrington & Bennich numbering, carrying a C225A mutation) (human) (UniProt P01854)", "assay": "flow cytometry, Alexa488 IgE-Fc on RBL-SX38 cells; control at 1 ug/mL"}}}
{"substance": "Isotype control (antibody)", "values": [{"measurement": "dissociation rate of IgE-Fc from FcεRI on cells", "setting": "[1]", "value": "1.35e-05", "unit": "s⁻¹"}, {"measurement": "dissociation rate of IgE-Fc from FcεRI on cells", "setting": "[2]", "value": "1.19e-05", "unit": "s⁻¹"}, {"measurement": "dissociation rate of IgE-Fc from FcεRI on cells", "setting": "[3]", "value": "1.3e-05", "unit": "s⁻¹"}, {"measurement": "dissociation rate of IgE-Fc from FcεRI on cells", "setting": "[4]", "value": "1.28e-05", "unit": "s⁻¹"}, {"measurement": "dissociation rate of IgE-Fc from FcεRI on cells", "setting": "[5]", "value": "1.25e-05", "unit": "s⁻¹"}]}
